# In patent publication US7247703:
# Biological target: HLA-A2.1 class I MHC molecule on T2 cells (human)
# Assay: T2 class I MHC stabilization assay, anti-HLA-A2 immunofluorescent staining, peptide vs medium alone
# Settings: remark: other sources report otherwise
row,% Increase of class I stabilization on T2,Binder
1,10%,TLSPGKNGV [p 1172-1180 HER-2/neu peptide …]
2,20%,HLYQGCQVV [p 48-56 HER-2/neu peptide …]
3,20%,CLTSTVQLV [p 789-797 HER-2/neu peptide …]
